Target: Rhesus/Macaque TNF (Rhesus/Macaque, UniProt P48094 77-233)
Assay: cell-based or functional assay

Chain of Rhesus/Macaque TNF (Rhesus/Macaque, UniProt P48094 77-233) (P48094 77-233 limits assumed): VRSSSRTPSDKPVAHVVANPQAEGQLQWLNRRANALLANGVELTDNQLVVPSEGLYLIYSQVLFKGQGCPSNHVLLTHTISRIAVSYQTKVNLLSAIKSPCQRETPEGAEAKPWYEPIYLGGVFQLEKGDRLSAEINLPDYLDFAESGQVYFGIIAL

Binder | rhesus TNF neutralization IC50
hMAK199-AM5 (antibody, V domains shown) VH: EVQLVQSGAEVKKPGASVKVSCKASGYTFRNYGIIWVRQAPGQGLEWMGWINTYTGKPTYAQKFQGRVTMTTDTSTSTAYMELSSLRSEDTAVYFCARKLFTTVDVTDNAMDYWGQGTTVTVSS VL: DIQMTQSPSSLSASVGDRVTITCRASQDISNYLNWYQQKPGKAPKLLIYYTSRLQSGVPSRFSGSGSGTDYTLTISSLQPEDFATYFCQQGNTWPPTFGQGTKLEIK | 0.02 nM
hMAK199-AM2 (antibody, V domains shown) VH: EVQLVQSGAEVKKPGASVKVSCKASGYTFNNYGIIWVRQAPGQGLEWMGWINTYTGKPTYAQKLQGRVTMTTDTSTSTAYMELSSLRSEDTAVYFCARKLFNTVDVTDNAMDYWGQGTTVTVSS VL: DIQMTQSPSSLSASVGDRVTITCRASQDISNYLNWYQQKPGKAPKLLIYYTSRLQSGVPSRFSGSGSGTDYTLTISSLQPEDFATYFCQQGNSWPPTFGQGTKLEIK | 0.01 nM
hMAK199-AM3 (antibody, V domains shown) VH: EVQLVQSGAEVKKPGASVKVSCKASGYTFNNYGIIWVRQAPGQGLEWMGWINTYTGVPTYAQKFQGRVTMTTDTSTSTAYMELSSLRSEDTAVYYCARKLFNTVDVTDNAMDYWGQGTTVTVSS VL: DIQMTQSPSSLSASVGDRVTITCRASQDIYNYLNWYQQKPGKAPKLLIYYTSRLQSGVPSRFSGSGSGTDYTLTISSLQPEDFATYFCQQGNTQPPTFGQGTKLEIK | 0.019 nM
hMAK199-AM4 (antibody, V domains shown) VH: EVQLVQSGAEVKKPGASVKVSCKASGYTFNNYGIIWVRQAPGQGLEWMGWINTYTGKPTYAQKFQGRVTMTTDTSTSTAYMELSSLRSEDTAVYYCARKLFNTVAVTDNAMDYWGQGTTVTVSS VL: DIQMTQSPSSLSASVGDRVTITCRASQDIENYLNWYQQKPGKAPKLLIYYTSRLQSGVPSRFSGSGSGTDFTLTISSLQPEDFATYFCQQGNTQPPTFGQGTKLEIK | 0.005 nM
hMAK199-AM7 (antibody, V domains shown) VH: EVQLVQSGAEVKKPGASVKVSCKASGYTFRNYGITWVRQAPGQGLEWMGWINTYTGKPTYAQKFQGRVTMTTDTSTSTAYMELSSLRSEDTAVYFCARKLFTTMDVTDNAMDYWGQGTTVTVSS VL: DIQMTQSPSSLSASVGDRVTITCRASQDISNYLNWYQQKPGKAPKLLIYYTSRLQSGVPSRFSGSGSGTDYTLTISSLQPEDFATYFCQQGNTWPPTFGQGTKLEIK | 0.051 nM
hMAK199-AM10 (antibody, V domains shown) VH: EVQLVQSGAEVKKPGASVKVSCKASGYTFNNYGIIWVRQAPGQGLEWMGWINTYSGKPTYAQKFQGRVTMTTDTSTSTAYMELSSLRSEDTAVYFCARKLFTTMDVTDNAMDYWGQGTTVTVSS VL: DIQMTQSPSSLSASVGDRVTITCRASQDISNFLNWYQQKPGKAPKLLIYYTSRLQSGVPSRFSGSGSGTDYTLTISSLQPEDFATYFCQQGNTQPPTFGQGTKLEIK | 0.034 nM
hMAK199-AM6 (antibody, V domains shown) VH: EVQLVQSGAEVKKPGASVKVSCKASGYTFNNYGINWVRQAPGQGLEWMGWINTYTGKPTYAQKFQGRVTMTTDTSTSTAYMELSSLRSEDTAVYFCARKFRNTVAVTDYAMDYWGQGTTVTVSS VL: DIQMTQSPSSLSASVGDRVTITCRASQDIYDVLNWYQQKPGKAPKLLIYYASRLQSGVPSRFSGSGSGTDFTLTISSLQPEDFATYYCQQGITLPPTFGQGTKLEIK | 0.004 nM
hMAK199-AM9 (antibody, V domains shown) VH: EVQLVQSGAEVKKPGASVKVSCKASGYTFSNYGINWVRQAPGQGLEWMGWINTYTGQPSYAQKFQGRVTMTTDTSTSTAYMELSSLRSEDTAVYYCARKLFKTEAVTDYAMDYWGQGTTVTVSS VL: DIQMTQSPSSLSASVGDRVTITCRASQNIYNVLNWYQQKPGKAPKLLIYYASRLQSGVPSRFSGSGSGTDFTLTISSLQPEDFATYFCQQGNTMPPTFGQGTKLEIK | 0.089 nM

Target: Rhesus/Macaque TNF (rhesus/macaque, UniProt P48094 77-233)
Sequence (P48094 77-233 limits assumed): as the sequence (P48094 77-233 limits assumed) above
Assay: cell-based or functional assay

Binder | rhesus TNF neutralization IC50 (L929 bioassay)
hMAK195-AM20 (antibody, V domains shown) VH: EVQLVESGGGLVQPGGSLRLSCAASGFTFSNYGVTWVRQAPGKGLEWVSMIWADGSTHYASSVKGRFTISRDNSKNTLYLQMNSLRAEDTAVYYCAREWQHGPVAYWGQGTLVTVSS VL: DIQMTQSPSSLSASVGDRVTITCKASQLVSSAVAWYQQKPGKAPKLLIYWASTRHTGVPSRFSGSGSGTDFTLTISSLQPEDFATYYCQQHYSTPFTFGQGTKLEIKR | 0.596 nM
hMAK195-AM11 (antibody, V domains shown) VH: EVQLVESGGGLVQPGGSLRLSCAASGFTFSNYGVNWVRQAPGKGLEWVSMIAADGFTDYASSVKGRFTISRDNSKNTLYLQMNSLRAEDTAVYYCAREWHHGPVAYWGQGTLVTVSS VL: DIQMTQSPSSLSASVGDRVTITCKASQAVSSAVAWYQQKPGKAPKLLIYWASTRHTGVPSRFSGSGSGTDFTLTISSLQPEDFATYYCQQHYSTPFTFGQGTKLEIKR | > 25 nM
hMAK195-AM13 (antibody, V domains shown) VH: EVQLVESGGGLVQPGGSLRLSCAASGFTFSNYGVSWVRQAPGKGLEWVSLIRGDGSTDYASSLKGRFTISRDNSKNTLYLQMNSLRAEDTAVYYCAREWHHGPVAYWGQGTLVTVSS VL: DIQMTQSPSSLSASVGDRVTITCKASQAVSSAVAWYQQKPGKAPKLLIYWASTRHTGVPSRFSGSGSGTDFTLTISSLQPEDFATYYCQQHYSTPFTFGQGTKLEIKR | 4.64 nM
hMAK195-AM15 (antibody, V domains shown) VH: EVQLVESGGGLVQPGGSLRLSCAASGFTFSNYGVTWVRQAPGKGLEWVSMIWSDGSTDYASSVKGRFTISRDNSKNTLYLQMNSLRAEDTAVYYCAREWQHGPVAYWGQGTLVTVSS VL: DIQMTQSPSSLSASVGDRVTITCKASQAVSSAVAWYQQKPGKAPKLLIYWASTRHTGVPSRFSGSGSGTDFTLTISSLQPEDFATYYCQQHYSTPFTFGQGTKLEIKR | > 150 nM
hMAK195-AM18 (antibody, V domains shown) VH: EVQLVESGGGLVQPGGSLRLSCAASGFTFSNYGVTWVRQAPGKGLEWVSMIWADGSTHYASSVKGRFTISRDNSKNTLYLQMNSLRAEDTAVYYCAREWQHGPSAYWGQGTLVTVSS VL: DIQMTQSPSSLSASVGDRVTITCKASQAVSSAVAWYQQKPGKAPKLLIYWASTRHTGVPSRFSGSGSGTDFTLTISSLQPEDFATYYCQQHYSTPFTFGQGTKLEIKR | 0.441 nM
hMAK195-AM19 (antibody, V domains shown) VH: EVQLVESGGGLVQPGGSLRLSCAASGFTFSNYGVSWVRQAPGKGLEWVSMIWADGSTHYASSLKGRFTISRDNSKNTLYLQMNSLRAEDTAVYYCAREWQHGPAAYWGQGTLVTVSS VL: DIQMTQSPSSLSASVGDRVTITCKASQAVSSAVAWYQQKPGKAPKLLIYWASTRHTGVPSRFSGSGSGTDFTLTISSLQPEDFATYYCQQHYSTPFTFGQGTKLEIKR | 1.21 nM
hMAK195-AM21 (antibody, V domains shown) VH: EVQLVESGGGLVQPGGSLRLSCAASGFTFSNYGVTWVRQAPGKGLEWVSMIWADGSTHYASSVKGRFTISRDNSKNTLYLQMNSLRAEDTAVYYCAREWQHGPVAYWGQGTLVTVSS VL: DIQMTQSPSSLSASVGDRVTITCRASQLVSSAVAWYQQKPGKAPKLLIYWASARHTGVPSRFSGSGSGTDFTLTISSLQPEDFATYYCQQHYKTPFTFGQGTKLEIKR | 0.09 nM
hMAK195-AM22 (antibody, V domains shown) VH: EVQLVESGGGLVQPGGSLRLSCAASGFTFSNYGVTWVRQAPGKGLEWVSMIWADGSTHYASSVKGRFTISRDNSKNTLYLQMNSLRAEDTAVYYCAREWQHGPVAYWGQGTLVTVSS VL: DIQMTQSPSSLSASVGDRVTITCRASQLVSSAVAWYQQKPGKAPKLLIYWASTRHSGVPSRFSGSGSGTDFTLTISSLQPEDFATYYCQQHYRTPFTFGQGTKLEIKR | 0.271 nM
hMAK195-AM23 (antibody, V domains shown) VH: EVQLVESGGGLVQPGGSLRLSCAASGFTFSNYGVTWVRQAPGKGLEWVSMIWADGSTHYADSVKSRFTISRDNSKNTLYLQMNSLRAEDTAVYYCAREWQHGPLAYWGQGTLVTVSS VL: DIQMTQSPSSLSASVGDRVTITCRASQLVSSAVAWYQQKPGKAPKLLIYWASTLHSGVPSRFSGSGSGTDFTLTISSLQPEDFATYYCQQHYSTPFTFGQGTKLEIKR | 2.63 nM
hMAK195-AM24 (antibody, V domains shown) VH: EVQLVESGGGLVQPGGSLRLSCAASGFTFSNYGVEWVRQAPGKGLEWVSGIWADGSTHYADTVKSRFTISRDNSKNTLYLQMNSLRAEDTAVYYCAREWQHGPVAYWGQGTLVTVSS VL: DIQMTQSPSSLSASVGDRVTITCKASQLVSSAVAWYQQKPGKAPKLLIYWASTLHTGVPSRFSGSGSGTDFTLTISSLQPEDFATYYCQQHYRTPFTFGQGTKLEIKR | 0.557 nM
hMAK195-AM26 (antibody, V domains shown) VH: EVQLVESGGGLVQPGGSLRLSCAASGFTFSNYGVSWVRQAPGKGLEWVSMIWADGSTHYADTVKGRFTISRDNSKNTLYLQMNSLRAEDTAVYYCAREWQHGPLAYWGQGTLVTVSS VL: DIQMTQSPSSLSASVGDRVTITCRASQLVSSAVAWYQQKPGKAPKLLIYWASTRHTGVPSRFSGSGSGTDFTLTISSLQPEDFATYYCQQHYRTPFTFGQGTKLEIKR | 0.249 nM

Reference: US20130164256A1 (AbbVie / Abbott, published 2013)
